{
  "source": "paper PMC8249747",
  "biological_target": "T1, QseA (YhcS, AaeR) (Escherichia coli K-12 W3110 type-A) (UniProt P67662)",
  "T1 sequence": "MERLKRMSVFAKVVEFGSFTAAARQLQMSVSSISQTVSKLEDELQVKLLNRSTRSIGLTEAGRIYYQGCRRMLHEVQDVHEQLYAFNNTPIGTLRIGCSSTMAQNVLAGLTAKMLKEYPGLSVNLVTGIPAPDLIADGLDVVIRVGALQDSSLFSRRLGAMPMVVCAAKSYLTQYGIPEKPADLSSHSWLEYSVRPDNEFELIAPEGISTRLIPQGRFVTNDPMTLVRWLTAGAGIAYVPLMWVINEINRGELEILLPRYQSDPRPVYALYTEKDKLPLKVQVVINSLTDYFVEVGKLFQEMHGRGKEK",
  "test": "EMSA",
  "conditions": "EMSA: gel shift buffer (composition not given), 37 C 30 min, PAGE, GelRed, footprinting: 1.0 pmol FITC probe, 25 C 30 min, 5 ng …",
  "data": [
    {"sequence": "GCGTTTTAGTCGTTCCATTATTCACTCTGACTTAAAAGTGATTTAGATCACATAATATAGATAACAGCATAACAGTTACGCTAATATATTAAATATCAATCTACAGCAATGTTGCTCTCGCCCGGCTTTCCATGCCCTTCTCTGCGGCGACAGATGCTGAAAATAATAACGCCTGCTCTCTCTTTACAACCAAGGTCAACATGAGTCTGTTTCCCGTTAT (double strand) [aaeX/qseA spacer probe (gel shift)]", "values": [
      {"measurement": "binding", "value": "binds"}
    ]}
  ]
}
